From US20150307628
Where a chain is given by its changes, count along the chain named. Names and notes keep the numbering of the source.

T1: dummy-Fc heavy chain constant region with CH3B of mutant EW-RVT (S-S) (Q347R/S354C/D399V/F405T)
T1 chain: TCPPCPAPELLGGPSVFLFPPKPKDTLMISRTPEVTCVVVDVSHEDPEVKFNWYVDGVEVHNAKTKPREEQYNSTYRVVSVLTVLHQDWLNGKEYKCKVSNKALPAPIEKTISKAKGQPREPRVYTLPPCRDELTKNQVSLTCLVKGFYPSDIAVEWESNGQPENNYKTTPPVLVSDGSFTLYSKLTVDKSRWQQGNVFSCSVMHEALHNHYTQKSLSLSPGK

T2: dummy-Fc heavy chain constant region with CH3B of mutant SW-WVT (S-S) (Y349C/E357W/D399V/F405T)
T2 chain: T1 chain with R123Q, Y125C, C130S, E133W

T3: dummy-Fc heavy chain constant region with CH3B of mutant EEW-RVT (Q347R/D399V/F405T)
T3 chain: T1 chain with C130S

B1: hAY4a scFv-Fc heavy chain with CH3A of mutant EW-RVT (S-S) (Y349C/K360E/K409W) (protein)
chain: T1 chain with R123Q, Y125C, C130S, K136E, V175D, T181F, K185W
B2: dummy-Fc heavy chain constant region with CH3B of mutant SW-WVT (S-S) (Y349C/E357W/D399V/F405T) (protein)
chain: T1 chain with R123Q, Y125C, C130S, E133W
B3: dummy-Fc heavy chain constant region with CH3B of mutant EEW-RVT (Q347R/D399V/F405T) (protein)
chain: T1 chain with C130S
B4: hAY4a scFv-Fc heavy chain with CH3A of mutant SW-WVT (S-S) (Y349S/S354C/K409W) (protein)
chain: T1 chain with R123Q, Y125S, V175D, T181F, K185W
B5: dummy-Fc heavy chain constant region with CH3B of mutant SW-WVT (E357W/D399V/F405T) (protein)
chain: T1 chain with R123Q, C130S, E133W
B6: dummy-Fc heavy chain constant region with CH3B of mutant EW-RVT (Q347R/D399V/F405T) (protein)
chain: T1 chain with C130S
B7: hAY4a scFv-Fc heavy chain with CH3A of mutant EEW-RVT (Q347E/K360E/K409W) (protein)
chain: T1 chain with R123E, C130S, K136E, V175D, T181F, K185W
B8: dummy-Fc heavy chain constant region with CH3B of mutant EW-RVT (S-S) (Q347R/S354C/D399V/F405T) (protein)
chain: T1 chain

How the values were obtained:
[1] = co-expression in HEK293F, protein A purification, non-reducing SDS-PAGE, band density (ImageJ); mean ± S.E.M.
[2] = target: T1, dummy-Fc heavy chain constant region …; assay: as above
[3] = target: T2, dummy-Fc heavy chain constant region …; assay: as above
[4] = target: T3, dummy-Fc heavy chain constant region …; assay: as above
[5] = target: T3, dummy-Fc heavy chain constant region …; assay: repeated expression and purification, SDS-PAGE band density (ImageJ)

Protein | Heterodimer yields, BB Homodimer (CH3B:CH3B) (Fc)2 [1] [%] | other results
B1 | – | Heterodimer yields, AA Homodimer (CH3A:CH3A) (scFv-Fc)2 [1]: 0.6%; Heterodimer yields, AB Heterodimer (CH3A:CH3B) (scFv-Fc)(Fc) [2]: 94.2%
B2 | 0.8 | –
B3 | 6.3 | –
B4 | – | Heterodimer yields, AB Heterodimer (CH3A:CH3B) (scFv-Fc)(Fc) [3]: 98.6%
B5 | 1.7 | –
B6 | 1.6 | –
B7 | – | Heterodimer yields, AB Heterodimer (CH3A:CH3B) (scFv-Fc)(Fc) [4]: 90.9%; yield of formation of the heterodimer [5]: about 90 to 95%
B8 | 2.2 | –
